± gives the uncertainty stated by the source.
Test: protein stability index of a GFP-peptide fusion (yeast GPS) (PSI 1-4); higher = more stable; sorted into four equal gates, so the index is relative within each strain
Outline: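 Yeast carrying a pooled library were grown to mid-log phase in leucine-free medium. Each library plasmid expresses Cherry and has a tiled 17-residue yeast protein peptide fused downstream of GFP. Cells were sorted into four equal gates by GFP/Cherry ratio, and plasmids from each gate were PCR-amplified, Illumina-sequenced and assigned to strains by barcode. Summing, across gates, the read frequency times the gate number gave each peptide's protein stability index.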

Sequence	protein stability index (doa10∆)	protein stability index (pdr5∆)	protein stability index (ubr1∆)	protein stability index (san1∆)
ITIQLTRDVEPENLQVT [BRR2]	2.79 ± 0.083	3.04 ± 0.13	2.85 ± 0.078	–
KLELINRYAYVLSSLMF [LRP1]	2.21 ± 0.05	2.31 ± 0.049	2.65 ± 0.046	1.94 ± 0.064
KQVQDFEENDHPNRVLE [COR1]	3.1 ± 0.074	3.29 ± 0.1	2.9 ± 0.065	3.19 ± 0.056
HASENISLSFSRPASYG [SIR4]	2.53 ± 0.064	2.53 ± 0.044	3.19 ± 0.045	2.74 ± 0.049
MEDPPSTVSGELNDNPA [YMR153W/NUP53]	2.45 ± 0.081	2.81 ± 0.054	2.83 ± 0.051	2.84 ± 0.077
DEKNKNNNEDNENNNNS [MED2]	3.11 ± 0.084	3.39 ± 0.069	3.28 ± 0.064	3.17 ± 0.062
DTIDNVKSKIQDKEGIP [RPS31]	3.22 ± 0.098	3.46 ± 0.089	3.57 ± 0.075	3.38 ± 0.05
SYFLKLLGNCYSLRLIN [SRB8]	2.81 ± 0.065	2.75 ± 0.06	2.96 ± 0.069	2.48 ± 0.061
SYFYRRIHVNPSYYGVR [BRR2]	1.5 ± 0.064	1.85 ± 0.057	1.76 ± 0.029	1.61 ± 0.07
EKYAAAAPAATSAASGD [RPP0]	2.47 ± 0.097	2.15 ± 0.074	2.78 ± 0.048	1.88 ± 0.13
LAFIPNILALNLVSLLI [YML031W/NDC1]	1.83 ± 0.073	1.38 ± 0.044	1.73 ± 0.047	1.44 ± 0.098
QMMARMAQTATQQQPGA [SRP54]	2.34 ± 0.059	2.36 ± 0.067	2.27 ± 0.044	2.35 ± 0.067
YDRATLTQLLSMMSDGI [RPO31]	2.29 ± 0.062	2.44 ± 0.053	1.66 ± 0.038	2.56 ± 0.054
YDDFIYLSDLKQFFQMT [PCI8]	2.5 ± 0.075	2.89 ± 0.073	2.87 ± 0.051	2.61 ± 0.084
RQTGPAKINEVYNNSKD [NSL1]	3.06 ± 0.087	3.06 ± 0.083	2.9 ± 0.062	2.93 ± 0.073
RVLETTLVEFETIKMKE [BRN1]	2.12 ± 0.22	3.23 ± 0.14	1.34 ± 0.086	–
SRKGIAFGLGAIMSKSS [ECM29]	1.61 ± 0.058	1.86 ± 0.054	1.74 ± 0.036	1.64 ± 0.08
LTYAQQQLNKQRQDFER [SNF6]	2.49 ± 0.073	2.44 ± 0.071	2.6 ± 0.038	2.17 ± 0.083
PAGTSLFGNNAGNTTTG [YGL172W/NUP49]	2.98 ± 0.16	3.24 ± 0.088	3.24 ± 0.084	2.88 ± 0.11
ARVLFDDMVEYEDGTPA [CYT1]	3.47 ± 0.17	3.09 ± 0.096	3.48 ± 0.11	3.24 ± 0.085

Sequence	protein stability index (doa10∆)	protein stability index (pdr5∆)	protein stability index (ubr1∆)	protein stability index (san1∆)
TSPTMPDYYVSILSFVD [RPT2]	2.2 ± 0.048	2.31 ± 0.05	2.15 ± 0.041	2.27 ± 0.042
GSPKSATSKTSEMLAKY [CDC53]	2.67 ± 0.075	2.48 ± 0.072	3 ± 0.045	1.83 ± 0.1
EVGNRKHYLEDKLKVYK [SNF5]	3.19 ± 0.1	3.19 ± 0.14	3.06 ± 0.067	3.11 ± 0.12
RENMICKIDFQKNFMDQ [RRI2]	2.9 ± 0.13	2.96 ± 0.11	3.24 ± 0.081	3.19 ± 0.067
GQVVLTPLTFALPRGAR [RPL14A]	1.5 ± 0.074	1.55 ± 0.071	1.89 ± 0.073	1.18 ± 0.11
KFLQVMQKHGYIGEFEY [RPS22A]	2.68 ± 0.063	2.27 ± 0.059	2.6 ± 0.054	2.11 ± 0.092
DDKYGRKFALEKLYIFY [SRP72]	2.71 ± 0.076	2.82 ± 0.081	2.4 ± 0.055	2.4 ± 0.061
YTYLYVRMLASPMLYKV [BRR2]	1.13 ± 0.12	1.19 ± 0.21	1.26 ± 0.11	1.22 ± 0.21
QTLYTGDKVVVTIWYRA [SSN3]	1.22 ± 0.058	1.32 ± 0.069	1.47 ± 0.047	1.25 ± 0.13
NINFASGVKNDILQSLS [CDC53]	2.11 ± 0.066	2.39 ± 0.045	1.66 ± 0.045	1.65 ± 0.053
TSANGIVQFTYGGDGLD [RPO31]	2.68 ± 0.093	2.77 ± 0.092	3.04 ± 0.064	2.24 ± 0.15
TAASEARKHKLKTLVQG [RPS27A]	2.1 ± 0.24	2.75 ± 0.22	3.04 ± 0.18	–
KESPWKILMYQYNIPPE [RRP6]	2.23 ± 0.07	2.01 ± 0.066	1.57 ± 0.055	1.42 ± 0.11
LWALLNFLLPDIFGDSE [ISW2]	2.15 ± 0.05	1.98 ± 0.05	2.64 ± 0.043	2.52 ± 0.07
QIENLNEVCLEKENRFE [SMC4]	3.27 ± 0.17	3.48 ± 0.1	3.4 ± 0.068	2.69 ± 0.23
GLTSRLQRQQRKSKLNL [POP4]	2.65 ± 0.12	3.34 ± 0.18	3.67 ± 0.27	3.09 ± 0.063
NTGDGSISTYKDILNLA [ECM29]	3.03 ± 0.083	2.97 ± 0.11	3.09 ± 0.079	3.04 ± 0.081
QKSVSLLSSESNIPTLI [YDL116W/NUP84]	2.73 ± 0.056	2.69 ± 0.065	2.67 ± 0.05	2.8 ± 0.039
NSTHLLPLQPIEIDYTV [SNF12]	2.34 ± 0.044	2.27 ± 0.044	2.21 ± 0.036	2.27 ± 0.051

Source: the supplement of paper PMC9732359
